# In article PMC3922912, “Structural basis of stereospecific reduction by quinuclidinone reductase” (AMB Express, 2014):
# How the values were obtained:
# O=C1CN2CCC1CC2 = assay: purified protein; assay type: biochemical, Rhodotorula mucilaginosa; conditions: 350 μM NADPH, 200 mM potassium phosphate pH 7.0, 37°C, substrate as HCl salt
# [1] = molecular target: T1, NADPH-dependent 3-quinuclidinone reductase (RrQR) (Rhodotorula mucilaginosa, UniProt B9ZZZ6); assay: X-ray crystal structure, […] Å; assay type: binding; conditions: crystals grown at 278 K, CHES pH 10.0, PEG8000; one NADPH per protomer
# T1 construct: gene rqr; homotetramer; crystal model residues 7-272, residues 1-6 disordered
# [2] = molecular target: NADPH-dependent 3-quinuclidinone reductase (RrQR) from Rhodotorula rubra (Rhodotorula rubra); assay: crystal structure; RrQR in complex with NADPH; crystals grown at 278 K, sitting-drop vapor diffusion, 100 mM CHES (pH 10.0), 30% PEG8000, 3% sucrose; four protomers in the asymmetric unit; 2.2 Å
molecule,measurement,setting,value
NADPH-dependent 3-quinuclidinone reductase (RrQR) (Rhodotorula mucilaginosa; N173A),Km,O=C1CN2CCC1CC2,100 mM
same,Vmax,O=C1CN2CCC1CC2,11.6 µmol/min/mg
same,kcat,O=C1CN2CCC1CC2,5.62 s⁻¹
NC(=O)C1=CN([C@@H]2O[C@H](COP(=O)(O)OP(=O)(O)OC[C@H]3O[C@@H](n4cnc5c(N)ncnc54)[C@H](OP(=O)(O)O)[C@@H]3O)[C@@H](O)[C@H]2O)C=CC1 [NADPH],"X-ray crystal structure, 2.2 Å",[1],A clear electron density for NADPH is observed in each protomer
NADPH-dependent 3-quinuclidinone reductase (RrQR) from Rhodotorula rubra (enzyme),stoichiometry N,[2],4
